Results published in patent US20250313631A1 (HUMMINGBIRD BIOSCIENCE PTE, published 2025).

T1: human B7H4 (human, UniProt Q7Z7D3 25-258, limits assumed)
T1 construct: also called VTCN1
T1 sequence (looked up): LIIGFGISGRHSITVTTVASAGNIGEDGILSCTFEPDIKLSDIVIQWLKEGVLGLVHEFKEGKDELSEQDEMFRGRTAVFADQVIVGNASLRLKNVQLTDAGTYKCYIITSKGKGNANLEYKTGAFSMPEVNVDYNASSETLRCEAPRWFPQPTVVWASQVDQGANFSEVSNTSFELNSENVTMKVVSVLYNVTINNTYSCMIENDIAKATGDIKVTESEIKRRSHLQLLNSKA

T2: human B7H6 (human, UniProt Q68D85 25-262)
T2 construct: also called NCR3LG1
T2 sequence (looked up): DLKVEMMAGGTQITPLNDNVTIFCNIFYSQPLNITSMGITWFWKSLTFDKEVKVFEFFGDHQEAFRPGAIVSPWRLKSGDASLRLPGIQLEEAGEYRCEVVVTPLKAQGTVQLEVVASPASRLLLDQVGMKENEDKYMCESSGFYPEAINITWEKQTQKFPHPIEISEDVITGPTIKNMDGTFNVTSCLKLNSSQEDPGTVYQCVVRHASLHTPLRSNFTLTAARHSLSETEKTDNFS

T3: human B7H7 (human, UniProt Q9UM44 23-344)
T3 construct: also called HHLA2
T3 sequence (looked up): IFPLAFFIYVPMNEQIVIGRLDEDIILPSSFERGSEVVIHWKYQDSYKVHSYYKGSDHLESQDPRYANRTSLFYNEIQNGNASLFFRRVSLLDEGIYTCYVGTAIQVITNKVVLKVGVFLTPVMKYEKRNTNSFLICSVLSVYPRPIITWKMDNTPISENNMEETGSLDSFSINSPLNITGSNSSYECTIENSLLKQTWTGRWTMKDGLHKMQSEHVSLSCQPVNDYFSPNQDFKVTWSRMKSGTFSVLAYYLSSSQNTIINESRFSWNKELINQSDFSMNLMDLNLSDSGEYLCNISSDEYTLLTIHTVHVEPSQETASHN

T4: recombinant rat VISTA (His-tagged) (rat, UniProt A0ABK0L5H3 33-192)
T4 sequence: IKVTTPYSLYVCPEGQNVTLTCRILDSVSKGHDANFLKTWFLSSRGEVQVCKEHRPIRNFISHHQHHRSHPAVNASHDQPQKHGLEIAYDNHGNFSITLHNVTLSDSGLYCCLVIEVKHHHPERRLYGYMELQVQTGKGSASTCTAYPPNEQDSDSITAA

T5: rat VISTA expressed on cells (rat, UniProt A0ABK0L5H3 33-310)
T5 construct: whole, on cells; also called rat VISTA on HEK293T cells; VISTA on rat CD11b+ myeloid cells
T5 sequence: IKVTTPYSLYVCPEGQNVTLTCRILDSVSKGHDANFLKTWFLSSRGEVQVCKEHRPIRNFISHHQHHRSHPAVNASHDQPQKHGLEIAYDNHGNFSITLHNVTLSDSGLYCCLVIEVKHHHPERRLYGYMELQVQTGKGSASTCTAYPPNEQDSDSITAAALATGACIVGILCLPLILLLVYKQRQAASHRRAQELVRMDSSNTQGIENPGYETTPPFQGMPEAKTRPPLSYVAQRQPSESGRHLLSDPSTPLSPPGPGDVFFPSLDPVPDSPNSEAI

B1: anti-VISTA clone 4M2-C12 IgG1 (antibody)
heavy: not shown
light: DIVITQTPAILSTSPGEKVTMTCRASSSVGYIHWYQQKPGSSPKPWIYATSNLASGVPARFSGSGSGTSNSLTITRVEAEDAATYYCQQWSSYPPITFGGGTKLEVKRTVAAPSVFIFPPSDEQLKSGTASVVCLLNNFYPREAKVQWKVDNALQSGNSQESVTEQDSKDSTYSLSSTLTLSKADYEKHKVYACEVTHQGLSSPVTKSFNRGEC
notes: mouse variable regions on human IgG1/kappa constant regions; also called V4; V4pr
B2: V4-C26 hIgG4 (antibody)
heavy: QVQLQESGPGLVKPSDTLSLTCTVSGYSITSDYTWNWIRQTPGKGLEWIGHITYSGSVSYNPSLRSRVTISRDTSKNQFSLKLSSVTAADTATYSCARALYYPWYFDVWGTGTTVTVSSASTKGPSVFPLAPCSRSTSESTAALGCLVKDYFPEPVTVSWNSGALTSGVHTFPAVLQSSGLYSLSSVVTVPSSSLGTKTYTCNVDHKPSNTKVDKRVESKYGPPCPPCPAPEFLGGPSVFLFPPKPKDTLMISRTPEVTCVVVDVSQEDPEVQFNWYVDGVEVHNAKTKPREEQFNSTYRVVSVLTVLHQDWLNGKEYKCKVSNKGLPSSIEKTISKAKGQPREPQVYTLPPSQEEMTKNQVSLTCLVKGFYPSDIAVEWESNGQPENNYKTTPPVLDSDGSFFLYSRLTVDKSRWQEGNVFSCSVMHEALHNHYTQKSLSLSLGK
light: EIVLTQSPATLSLSPGERATLSCRASSSVGYIHWYQQKPGQAPRPIIYTTSNRATGIPARFSGSGSGTDNTLTISSLEPEDSAVYYCQQWSSYPPITFGGGTKLEVKRTVAAPSVFIFPPSDEQLKSGTASVVCLLNNFYPREAKVQWKVDNALQSGNSQESVTEQDSKDSTYSLSSTLTLSKADYEKHKVYACEVTHQGLSSPVTKSFNRGEC
notes: human IgG4 (S228P)/kappa format; also called HMBD-002; HMBD-002-V4C26

Assays:
[1] = target: T6, recombinant human VISTA (His-tagged) (human, UniProt Q9H7M9 33-194); experiment: ELISA, plate coated with human VISTA
T6 construct: bought soluble protein (Sino Biological); also called hVISTA; human VISTA polypeptide

[2] = target: human PD-1 (human, UniProt Q15116 25-167); experiment: ELISA, plate coated with the antigen
human PD-1, sequence (Q15116 25-167 limits assumed): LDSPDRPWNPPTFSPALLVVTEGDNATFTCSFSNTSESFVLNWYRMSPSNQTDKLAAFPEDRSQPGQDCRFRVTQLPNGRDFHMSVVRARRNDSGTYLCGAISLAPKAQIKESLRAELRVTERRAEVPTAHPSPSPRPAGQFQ

[3] = target: T1, human B7H4; experiment: ELISA, plate coated with the antigen
[4] = target: T2, human B7H6; experiment: ELISA, plate coated with the antigen
[5] = target: T3, human B7H7; experiment: ELISA, plate coated with the antigen
[6] = target: T6, recombinant human VISTA (His-tagged); experiment: BLI (Octet), 1:1 global fit, His-tagged human VISTA captured
[7] = target: T4, recombinant rat VISTA (His-tagged); experiment: ELISA, VISTA-HIS protein coated; ELISA, rat VISTA-HIS
Experimental: (§1) 384-well plates were coated with 1 μg/ml of target antigen diluted in PBS for 16 hrs at 4° C. […] After washing, plates were developed with colorimetric detection substrate 3,3′,5,5′-tetramethylbenzidine (Turbo-TMB; Pierce) for 10 min.

[8] = target: T6, recombinant human VISTA (His-tagged); experiment: antigen-binding ELISA; HMBD-002 10 mg/mL in F1, day 0
[9] = target: T6, recombinant human VISTA (His-tagged); experiment: antigen-binding ELISA; HMBD-002 10 mg/mL in F4, day 0
[10] = target: T6, recombinant human VISTA (His-tagged); experiment: antigen-binding ELISA; HMBD-002 10 mg/mL in F6, day 0
[11] = target: T6, recombinant human VISTA (His-tagged); experiment: antigen-binding ELISA; HMBD-002 in F3, day 20 at 40°C
[12] = target: T6, recombinant human VISTA (His-tagged); experiment: antigen-binding ELISA; HMBD-002 in F4, day 30 at 40°C
[13] = target: T6, recombinant human VISTA (His-tagged); experiment: antigen-binding ELISA; HMBD-002 in F9, day 30 at 40°C
[14] = target: T6, recombinant human VISTA (His-tagged); experiment: antigen-binding ELISA; HMBD-002 10 mg/mL in F10, day 0
[15] = target: T5, rat VISTA expressed on cells; experiment: flow cytometry, endogenous VISTA on CD11b+ myeloid cells of PBMCs
Experimental: To identify myeloid cells, PBMCs were further incubated with CD45 FITC and CD11b PE. Cells were washed again and resuspended in 200 μL of FACS flow buffer (PBS with 5 mM EDTA) for flow cytometric analysis using MACSQuant 10 (Miltenyi). After acquisition, all raw data were analyzed using Flowlogic software. Cells were gated using forward and side scatter, and the percentage of positive cells was determined.

[16] = target: T3, human B7H7; experiment: ELISA, plate coated with human B7H7, antibody titrated
Experimental: as §1

Binder | EC50 (read off the curve) [1] [nM] | binding result [2] | binding result [3] | binding result [4] | binding result [5] | Kd [6] [nM] | koff [6] [s⁻¹] | kon [6] [M⁻¹ s⁻¹] | EC50 [7] [nM] | EC50 [8] [nM] | EC50 [9] [nM] | EC50 [10] [nM] | EC50 [11] [nM] | EC50 [12] [nM] | EC50 [13] [nM] | EC50 [14] [nM] | EC50 [15] [nM] | binding result [16]
B1 | ~0.01 | no binding (tested: log -7.5 M) | no binding (tested: log -7.5 M) | no binding (tested: log -7.5 M) | no binding (tested: log -7.5 M) | < 0.001 | < 1e-07 | 128000 |  |  |  |  |  |  |  |  |  | 
B2 |  |  |  |  |  |  |  |  | 0.00669 | 0.04 | 0.0357 | 0.0294 | 0.0189 | 0.0227 | 0.0237 | 0.0321 | 48.6 | no binding (tested: about 3e-8 M)
